# According to patent US20040077572:
# Tested on: Sleeping Beauty transposase SB10 (synthetic (reconstructed salmonid))
# Assay: cell_activity
substance,measurement,setting,value
Lo(AAG) transposon,activity,relative excision,11%
LoLi-LiLo transposon,activity,"relative excision, transposition 101%",95%
LoLo-RiRo transposon,activity,"relative excision, transposition 45%",46%
LoLo-RoRo transposon,activity,transposition reduced nearly 85%,15%
RoRi-RiRo transposon,activity,"relative excision, transposition 29%",43%
TANNNNCAGTTGAAGTCGGAAGTTTACATACACTTAAG (double strand) [TAN4Lo transposon],activity,relative transposition in HeLa,30%
pT2/SV40Neo transposon,activity,just under four-fold over pT/SV40neo,4 fold
